The record followed here is paper PMC5029660, “The DEK oncogene activates VEGF expression and promotes tumor angiogenesis and growth in HIF-1α-dependent and -independent manners”.

Series [1] deals with T1, His-DEK (UniProt P35659 1-375).
T1 sequence: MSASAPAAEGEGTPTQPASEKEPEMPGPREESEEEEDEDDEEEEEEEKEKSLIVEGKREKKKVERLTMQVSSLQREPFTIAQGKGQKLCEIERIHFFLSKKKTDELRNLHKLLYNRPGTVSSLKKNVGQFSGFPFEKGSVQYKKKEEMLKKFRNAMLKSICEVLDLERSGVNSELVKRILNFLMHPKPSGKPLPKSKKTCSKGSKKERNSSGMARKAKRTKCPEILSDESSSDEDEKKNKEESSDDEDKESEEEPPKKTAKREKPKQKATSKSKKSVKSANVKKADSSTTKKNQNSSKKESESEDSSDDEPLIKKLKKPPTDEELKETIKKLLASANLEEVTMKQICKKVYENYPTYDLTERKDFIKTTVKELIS
Nature of the series: EMSA; LightShift Chemiluminescent EMSA Kit (Pierce), per manufacturer; buffer, salt, pH and temperature not stated. As to conditions: protein: recombinant; tags: His; label: biotin; blunt.

Series [2] addresses T1, His-DEK. The series can be described thus: EMSA; abolished by 100-fold excess unlabeled DRE1; LightShift Chemiluminescent EMSA Kit (Pierce), per manufacturer; buffer, salt, pH and temperature not stated. As to conditions: protein: recombinant; tags: His; label: biotin; blunt. (A gel shift assay detects complexes by their altered migration in electrophoresis.)

B1: DRE2 (dsDNA)
DNA 1: TGGAAAGGGAGGGTTGGGGTGGGTGGGAGCCAGCCCT
DNA 2: AGGGCTGGCTCCCACCCACCCCAACCCTCCCTTTCCA
B1: the binding result in series [1] is “no binding”.

B2: HRE (dsDNA)
DNA 1: ACAGTGCATACGTGGGCTCCAACAGGTCCTCTTCCCTCCC
DNA 2: GGGAGGGAAGAGGACCTGTTGGAGCCCACGTATGCACTGT
For B2, in series [1], the binding result is on record as “no binding”.

B3: DRE1-M (dsDNA)
DNA 1: GGGTTGAGGGCGGGTTCTATTTGAGAAGGCCAGGGGT
DNA 2: ACCCCTGGCCTTCTCAAATAGAACCCGCCCTCAACCC
Take B3: in series [1], the binding result was “no binding”.

B4: DRE1 (dsDNA)
DNA 1: GGGTTGAGGGCGTTGGAGCGGGGAGAAGGCCAGGGGT
DNA 2: ACCCCTGGCCTTCTCCCCGCTCCAACGCCCTCAACCC
In the case of B4, in series [2], the binding result was “binds”.
